Source: US20180362629A1 (ZOETIS BELGIUM S A, published 2018)
Values joined by “and” are separate entries in the source; they are usually repeats but may differ in a detail not shown here. Equal entries are not always repeated. Where two headings read alike, the source gives them in different places.

T1: recombinant canine β NGF (canine, UniProt Q29074 110-229 (pig entry))
T1 chain: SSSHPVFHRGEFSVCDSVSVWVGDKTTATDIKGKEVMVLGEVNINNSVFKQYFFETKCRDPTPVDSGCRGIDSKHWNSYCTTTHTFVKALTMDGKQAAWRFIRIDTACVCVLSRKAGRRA

B1: Mu82 Canine IgG1/k Chimera (antibody, V domains shown)
VH: QVQLKESGPGLVAPSQSLSITCTVSGFSLTGYNINWVRQPPGKGLEWLGMIWGYGDTDYNSALKSRLSISKDNSKSQVFLKMNSLQTDDTARYYCARDHYGGNDWYFDVWGTGTTVTVSS
VL: DIQMTQTTSSLSASLGDRVTITCRASQDITNYLNWYQQKPDGTVKLLIYYTSRLHSGVPSRFSGSGSGTDYSLTISNLDQEDIATYFCQQGKTLPRTFGGGTKLEIKR
notes: The exact junction was not checked; also called PR-1290658; lot 1785732
B2: PR-1254973 (antibody, mouse IgG2b, V domains shown)
VH: QVQLQQPGAELVKPGASVKLSCKASGYTFTNYWMHWVKQRPGQGLEWIGRIDPYGGGTKHNEKFKRKATVTADKSSSTAYILLSSLTSEDSAVYYCTRSGYDYYFDVWGTGTTVTVSS
VL: DIQMTQSPASLSASVGETVTVTCRASENIYSFLAWHQQKQGKSPQLLVYNANTLAEGVPSRFSGSGSGTQFSLKINSLQPEDFGSYYCQHHFGTPFTFGSGTKLEIKR
notes: also called 2B12; ML129-2B12.5G9
B3: Mu73 Canine IgG1/k Chimera (antibody, V domains shown)
VH: QVQLQQPGAELVKPGASVKLSCKASGYTFTNYWMHWVKQRPGQGLEWIGRIDPYGGGTKHNEKFKRKATVTADKSSSTAYILLSSLTSEDSAVYYCTRSGYDYYFDVWGTGTTVTVSS
VL: DIQMTQSPASLSASVGETVTVTCRASENIYSFLAWHQQKQGKSPQLLVYNANTLAEGVPSRFSGSGSGTQFSLKINSLQPEDFGSYYCQHHFGTPFTFGSGTKLEIKR
notes: also called PR-1290654; lot 1785658
B4: PR-1254972 (antibody, mouse IgG2b, V domains shown)
VH: EVHLVESGGGLVKPGGFLILSCAASGFTFSDYYMFWIRQTPGKRLEWVATISDGGSYTYYTDNVKGRFTISRDNVKNNLYLQMSHLKSADTAMYYCARDWSDSEGFAYWGQGTLVTVSA
VL: DVLMTQTPLSLPVSLGDQASISCRSSQSIVQSNGNTYLEWYLQKPGQSPKLLIYKVSNRFSGVPDRFSGSGSGTDFTLKISRVEAEDLGVYYCFQGSHVPFTFGSGTKLEIKR
notes: also called 20B10; ML129-20B10.3F4
B5: PR-1254981 (antibody, mouse IgG1, V domains shown)
VH: EVQLVESGGGAVKPGGSLTLSCAASGFTFSNHYMYWVRQTPEKRLEWVASISDGGAYTFYPDTVKGRFTISRDNVNNNLYLQMRHLKSEDTAMYYCTREESANNGFAFWGQGTLVTVSA
VL: DVLMTQTPLSLPVSLGDQASISCRSSQSILHSNGNTYLEWYLQKPGQSPNLLIYRVSNRFSGVPDRFSGSGSGTDFTLKISRVEAEDLGVYYCFQGAHVPFTFGSGTKLEIKR
notes: also called 14A9; ML130-14A9.5B12
B6: Mu81 Canine IgG1/k Chimera (antibody, V domains shown)
VH: EVQLVESGGGAVKPGGSLTLSCAASGFTFSNHYMYWVRQTPEKRLEWVASISDGGAYTFYPDTVKGRFTISRDNVNNNLYLQMRHLKSEDTAMYYCTREESANNGFAFWGQGTLVTVSA
VL: DVLMTQTPLSLPVSLGDQASISCRSSQSILHSNGNTYLEWYLQKPGQSPNLLIYRVSNRFSGVPDRFSGSGSGTDFTLKISRVEAEDLGVYYCFQGAHVPFTFGSGTKLEIKR
notes: also called PR-1290657; lot 1778832
B7: PR-1254977 (antibody, mouse IgG1, V domains shown)
VH: EVQLQQSGAELVKPGASVKLSCTASGFNIKDTYIYWVKQRPEQGLEWIGRIDPANGNTIYASKFQGKASITADTSSNTAYMQLSSLTSGDTAVYYCAGYGYYAYWGQGTTLTVSS
VL: DVVLTQTPLSLPVNIGDQASISCKSTKSLLNGDGFTYLDWYLQKPGQSPQLLIYLVSNRFSGVPDRFSGSGSGTDFTLKISRVEAEDLGVYYCFESNYLFTFGSGTKLEMKR
notes: also called 21D4; ML129-21D4.4A11
B8: Mu77 Canine IgG1/k Chimera (antibody, V domains shown)
VH: EVQLQQSGAELVKPGASVKLSCTASGFNIKDTYIYWVKQRPEQGLEWIGRIDPANGNTIYASKFQGKASITADTSSNTAYMQLSSLTSGDTAVYYCAGYGYYAYWGQGTTLTVSS
VL: DVVLTQTPLSLPVNIGDQASISCKSTKSLLNGDGFTYLDWYLQKPGQSPQLLIYLVSNRFSGVPDRFSGSGSGTDFTLKISRVEAEDLGVYYCFESNYLFTFGSGTKLEMKR
notes: also called PR-1290656; lot 1785699

What was measured:
[1] = biological target: human β NGF (R&D Systems catalog #256-GF/CF) (human) (UniProt P01138); assay: cell-based or functional assay
recombinant canine β NGF [2] = biological target: T1, recombinant canine β NGF; assay: cell-based or functional assay
recombinant canine β NGF [3] = biological target: T1, recombinant canine β NGF; assay: SPR (Biacore T100), antibody captured on goat anti-canine IgG, canine NGF injected
Protocol: Purified mouse/canine chimeric antibodies and caninized antibodies were analyzed for affinity to canine NGF using a Biacore T100 instrument. Goat anti Canine IgG (Southern Biotech) was immobilized at 5000-10000 RU on a CM5 chip using an amine coupling procedure according to the manufacturer's instructions (Biacore). […] The association rate was monitored for 5 min and the dissociation rate was monitored for 10-20 min. The chip surface was regenerated using 50-75 ul 10 mM glycine pH 1.5 at a flow rate of 50-100 ul/min. Data was analyzed using Biaevaluation T100 software version 2.0.2, software, GE Healthcare Life Sciences (Piscataway, N.J.). Overall affinity parameters established for mouse/canine chimeric antibodies is summarized in Table 22 and for caninized antibodies in Table 23. […] The overall KDs of the mouse/canine anti-NGF mAbs range from about 1300 pM to 1.6 pM. […] The overall KDs of the caninized anti-NGF mAbs range from about 42 pM to 1.2 pM.

recombinant canine β NGF [4] = biological target: T1, recombinant canine β NGF; assay: cell-based or functional assay
recombinant canine β NGF [5] = biological target: T1, recombinant canine β NGF; assay: cell-based or functional assay
recombinant canine β NGF [6] = biological target: T1, recombinant canine β NGF; assay: direct ELISA, canine NGF coated at 1 µg/ml, mAb at 2 µg/ml
Protocol: (§1) To determine if purified mouse anti-NGF mAbs bind to canine β NGF, ELISA plates were coated with 50 μl/well of canine NGF (Abbott Laboratories) at 1 μg/ml in PBS and incubated over night at 4° C. The plates were washed three times with PBS+Tween buffer. The plates were blocked with 200 μl/well of 2% milk in PBS for 1 hour at room temperature. The plates were washed three times as above. Purified antibodies were diluted to 0.4, 2, or 10 μg/ml. 50 μl of each concentration of purified antibody was added to the plates. The plates were incubated for 1 hour at room temperature. The plates were washed. 50 μl of a 5000-fold diluted goat anti-mouse IgG Fc-HRP (Thermo, catalog #31439) was added. The plates were incubated for 1 hour at room temperature. 50 μl of TMB (Invitrogen, catalog #00-2023) was added and the reaction was stopped using 2N H₂SO₄ (VWR, catalog # BDH3500-1). The absorbance at 450 nm was read on a Spectromax 2E plate reader (Molecular Devices). The results are shown in Table 9, and the numerical value indicates binding of mouse anti-NGF antibodies to canine β NGF.

recombinant canine β NGF [7] = biological target: T1, recombinant canine β NGF; assay: direct ELISA, canine NGF coated at 1 µg/ml, mAb at 10 µg/ml
Protocol: as §1

recombinant canine β NGF [8] = biological target: T1, recombinant canine β NGF; assay: direct ELISA, canine NGF coated at 1 µg/ml, mAb at 0.4 µg/ml
Protocol: as §1

recombinant canine β NGF [9] = biological target: T1, recombinant canine β NGF; assay: SPR (Biacore), mAb captured on goat anti-mouse IgG Fc, canine NGF injected; Expt 1
Protocol: (§2) A biomolecular protein interaction analysis was used to evaluate the binding kinetics of the interaction between the purified anti-NGF hybridoma antibodies and recombinant canine β NGF. The antibodies were captured using a goat anti-mouse IgG FC (10000 RU) surface which was directly immobilized to a CM5 chip using an amine coupling procedure according to the manufacturer's instructions (Biacore). A sample size of 5 μl of antibody at a concentration of 1 μg/ml was captured at 10 μl minute. Recombinant canine NGF was used as the antigen. Canine NGF was injected at 75 μl/min (concentration range: 5-0.039 nM) for mouse antibodies. The association rate was monitored for 3.3 minutes and the dissociation rate was monitored for 10 minutes. Aliquots of canine NGF were also simultaneously injected over a reference reaction CM surface to record any nonspecific binding background. The instrument sensitivity for on-rate is I×IO⁷, such that any on-rate that is faster than I×IO⁷ may not be accurately measured; the instrument sensitivity for off-rate is […], such that any off-rate that is slower than 1×10⁻⁶ may not be accurately measured. Therefore, an on-rate that is faster than 1×10⁷ is recorded as >1×10⁷ and an off-rate that is slower than 1×10⁻⁶ is recorded as <1×10⁻⁶.

recombinant canine β NGF [10] = biological target: T1, recombinant canine β NGF; assay: SPR (Biacore), mAb captured on goat anti-mouse IgG Fc, canine NGF injected; Expt 2
Protocol: as §2

recombinant canine β NGF [11] = biological target: T1, recombinant canine β NGF; assay: SPR (Biacore), mAb captured on goat anti-mouse IgG Fc, canine NGF injected; Average
Protocol: as §2

human β NGF (R&D Systems catalog #256-GF/CF) (human), sequence (P01138 122-241 limits assumed): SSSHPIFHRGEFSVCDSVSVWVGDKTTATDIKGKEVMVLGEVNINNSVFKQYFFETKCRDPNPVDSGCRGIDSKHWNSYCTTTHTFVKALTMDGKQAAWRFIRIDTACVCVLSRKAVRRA

| Molecule | IC50, canine NGF-induced TF-1 cell proliferation (70 pM canine NGF) (recombinant canine β NGF [2]) [pM] | Kd (recombinant canine β NGF [3]) [nM] | koff (recombinant canine β NGF [3]) [s⁻¹] | IC50, canine NGF-induced TF-1 cell proliferation (70 pM canine NGF) (recombinant canine β NGF [4]) | PathHunter IC50 (441 pM canine NGF) (recombinant canine β NGF [5]) [nM] | SureFire pERK IC50 (128 pM canine β NGF) (recombinant canine β NGF [5]) | absorbance at 450 nm (recombinant canine β NGF [6]) [A450] | absorbance at 450 nm (recombinant canine β NGF [7]) [A450] | absorbance at 450 nm (recombinant canine β NGF [8]) [A450] | Kd (recombinant canine β NGF [9]) [nM] | koff (recombinant canine β NGF [9]) [s⁻¹] | kon (recombinant canine β NGF [9]) [M⁻¹ s⁻¹] | Kd (recombinant canine β NGF [10]) [nM] | koff (recombinant canine β NGF [10]) [s⁻¹] | kon (recombinant canine β NGF [10]) [M⁻¹ s⁻¹] | Kd (recombinant canine β NGF [11]) [nM] | koff (recombinant canine β NGF [11]) [s⁻¹] | kon (recombinant canine β NGF [11]) [M⁻¹ s⁻¹] | also measured |
| --- | --- | --- | --- | --- | --- | --- | --- | --- | --- | --- | --- | --- | --- | --- | --- | --- | --- | --- | --- |
| Unrelated hybridoma (antibody) |  |  |  |  |  |  |  |  |  |  |  |  |  |  |  |  |  |  | PathHunter % of max signal, supernatant 1000-fold [1]: 136% and 144%; PathHunter % of max signal, supernatant 5000-fold [1]: 126% and 132%; PathHunter % of max signal, supernatant 10000-fold [1]: 138% and 137% |
| B1 | 7 | 0.0016 | 1.4e-05 |  |  |  |  |  |  |  |  |  |  |  |  |  |  |  |  |
| B2 |  |  |  | 39 pM | 0.143 | 18.8 pM | 0.836 | 0.905 | 0.769 | < 0.0121 | 0.000121 | > 1e+07 | < 0.0138 | 0.000138 | > 1e+07 | < 0.013 | 0.00013 | > 1e+07 |  |
| B3 | 8 | 0.014 | 9e-05 |  |  |  |  |  |  |  |  |  |  |  |  |  |  |  |  |
| B4 |  |  |  | 0.303 nM | 0.313 | 0.228 nM | 0.091 | 0.154 | 0.071 | < 0.314 | 0.00314 | > 1e+07 | < 0.321 | 0.00321 | > 1e+07 | < 0.318 | 0.00318 | > 1e+07 |  |
| B5 |  |  |  | 46 pM | 0.279 | 21.4 pM | 0.458 | 0.61 | 0.229 | 0.0147 | 0.000127 | 8.67e+06 | 0.0187 | 0.00014 | 7.48e+06 | 0.0167 | 0.000134 | 8.08e+06 |  |
| B6 | 12 | 0.082 | 0.00035 |  |  |  |  |  |  |  |  |  |  |  |  |  |  |  |  |
| B7 |  |  |  | 0.217 nM | 0.181 | 17.6 pM | 0.414 | 0.552 | 0.223 | < 0.0139 | 0.000139 | > 1e+07 | < 0.016 | 0.00016 | > 1e+07 | < 0.015 | 0.00015 | > 1e+07 |  |
| B8 | 28 | 0.021 | 0.00019 |  |  |  |  |  |  |  |  |  |  |  |  |  |  |  |  |
